Data published in paper PMC3553976 (Nucleic Acids Research, 2012).
Where two headings read alike, the source gives them in different places. Blank lines part the entries; values can stand above or below the binder they belong to.

B5: U2AF65^UHM, C-terminal U2AF homology motif domain of U2AF65 (residues 372–475) (domain or fragment)
chain: GHPTEVLCLMNMVLPEELLDDEEYEEIVEDVRDECSKYGLVKSIEIPRPVDGVEVPGCGKIFVEFTSVFDCQKAMQGLTGRKFANRVVVTKYCDPDSYHRRDFW

Assays:
[1] = target: T1, U2AF65^RRM123 (residues 147–475) (human, UniProt P26368 147-475); test: native gel or EMSA
Target sequence in this assay (P26368 147-475, one chain of several): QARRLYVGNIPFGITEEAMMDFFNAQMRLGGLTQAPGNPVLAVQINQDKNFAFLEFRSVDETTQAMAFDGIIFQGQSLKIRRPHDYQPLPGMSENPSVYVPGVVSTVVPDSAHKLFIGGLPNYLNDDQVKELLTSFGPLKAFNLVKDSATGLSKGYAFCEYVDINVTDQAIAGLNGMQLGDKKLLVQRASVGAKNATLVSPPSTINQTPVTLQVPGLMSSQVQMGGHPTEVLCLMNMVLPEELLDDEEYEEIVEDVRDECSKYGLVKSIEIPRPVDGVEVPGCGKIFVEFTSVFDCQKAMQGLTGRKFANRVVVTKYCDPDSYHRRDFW

[2] = target: B5; test: ITC
[3] = target: T1, U2AF65^RRM123 (residues 147–475); test: ITC
SF1^NTD (residues 1–145) [4] = target: T2, SF1^NTD (residues 1–145) (human, UniProt Q15637 1-145); test: ITC
SF1^HH (residues 27–145) = target: T3, SF1^HH (residues 27–145) (human, UniProt Q15637 27-145); test: ITC
T3 sequence: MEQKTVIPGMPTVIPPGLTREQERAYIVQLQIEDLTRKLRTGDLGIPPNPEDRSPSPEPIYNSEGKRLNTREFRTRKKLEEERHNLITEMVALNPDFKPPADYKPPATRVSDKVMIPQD

SF1^NTD (residues 1–145) [5] = target: T2, SF1^NTD (residues 1–145); test: ITC; remark: listed apart in the source

binding result [1]: binds
B1: SF1-Δα2, SF1^2-320 with helix α2 deleted (Δ96–128) (domain or fragment, human)
chain: ATGANATPLDFPSKKRKRSRWNQDTMEQKTVIPGMPTVIPPGLTREQERAYIVQLQIEDLTRKLRTGDLGIPPNPEDRSPSPEPIYNSEGKRLNGTYKPPATRVSDKVMIPQDEYPEINFVGLLIGPRGNTLKNIEKECNAKIMIRGKGSVKEGKVGRKDGQMLPGEDEPLHALVTANTMENVKKAVEQIRNILKQGIETPEDQNDLRKMQLRELARLNGTLREDDNRILRPWQSSETRSITNTTVCTKCGGAGHIASDCKFQRPGDPQSAQDKARMDKEYLSLMAEL

binding result [1]: binds
B2: His6-tagged SF1^2-320 (domain or fragment, human, UniProt Q15637 2-320, looked up)
chain: ATGANATPLDFPSKKRKRSRWNQDTMEQKTVIPGMPTVIPPGLTREQERAYIVQLQIEDLTRKLRTGDLGIPPNPEDRSPSPEPIYNSEGKRLNTREFRTRKKLEEERHNLITEMVALNPDFKPPADYKPPATRVSDKVMIPQDEYPEINFVGLLIGPRGNTLKNIEKECNAKIMIRGKGSVKEGKVGRKDGQMLPGEDEPLHALVTANTMENVKKAVEQIRNILKQGIETPEDQNDLRKMQLRELARLNGTLREDDNRILRPWQSSETRSITNTTVCTKCGGAGHIASDCKFQRPGDPQSAQDKARMDKEYLSLMAEL

Kd [3]: 96 ± 32 nM
B4: pSF1, phosphorylated SF1 (residues 1–260) (domain or fragment)
chain: MATGANATPLDFPSKKRKRSRWNQDTMEQKTVIPGMPTVIPPGLTREQERAYIVQLQIEDLTRKLRTGDLGIPPNPEDRSPSPEPIYNSEGKRLNTREFRTRKKLEEERHNLITEMVALNPDFKPPADYKPPATRVSDKVMIPQDEYPEINFVGLLIGPRGNTLKNIEKECNAKIMIRGKGSVKEGKVGRKDGQMLPGEDEPLHALVTANTMENVKKAVEQIRNILKQGIETPEDQNDLRKMQLRELARLNGTLREDDNR
modifications: phosphoserine at 80 and 82

binding result [1]: binds
B6: SF1^2-320 with helix α1 deleted (Δ35–68) (domain or fragment, human)
chain: ATGANATPLDFPSKKRKRSRWNQDTMEQKTVIPGTDLGIPPNPEDRSPSPEPIYNSEGKRLNTREFRTRKKLEEERHNLITEMVALNPDFKPPADYKPPATRVSDKVMIPQDEYPEINFVGLLIGPRGNTLKNIEKECNAKIMIRGKGSVKEGKVGRKDGQMLPGEDEPLHALVTANTMENVKKAVEQIRNILKQGIETPEDQNDLRKMQLRELARLNGTLREDDNRILRPWQSSETRSITNTTVCTKCGGAGHIASDCKFQRPGDPQSAQDKARMDKEYLSLMAEL

binding result [1]: binds
B7: SF1^2-320 with the α1–α2 linker deleted (Δ75–90) (domain or fragment, human)
chain: ATGANATPLDFPSKKRKRSRWNQDTMEQKTVIPGMPTVIPPGLTREQERAYIVQLQIEDLTRKLRTGDLGIPPGTGKRLNTREFRTRKKLEEERHNLITEMVALNPDFKPPADYKPPATRVSDKVMIPQDEYPEINFVGLLIGPRGNTLKNIEKECNAKIMIRGKGSVKEGKVGRKDGQMLPGEDEPLHALVTANTMENVKKAVEQIRNILKQGIETPEDQNDLRKMQLRELARLNGTLREDDNRILRPWQSSETRSITNTTVCTKCGGAGHIASDCKFQRPGDPQSAQDKARMDKEYLSLMAEL

More lines, now with the values behind:

Binder: MATGANATPLDFPSKKRKRSRWNQD (peptide, UniProt Q15637 1-25, looked up) [SF1^ULM (residues 1–25)]
Kd [2]: 127 ± 48 nM

B3: SF1 (residues 1–260) (domain or fragment, human, UniProt Q15637 1-260, looked up)
chain: MATGANATPLDFPSKKRKRSRWNQDTMEQKTVIPGMPTVIPPGLTREQERAYIVQLQIEDLTRKLRTGDLGIPPNPEDRSPSPEPIYNSEGKRLNTREFRTRKKLEEERHNLITEMVALNPDFKPPADYKPPATRVSDKVMIPQDEYPEINFVGLLIGPRGNTLKNIEKECNAKIMIRGKGSVKEGKVGRKDGQMLPGEDEPLHALVTANTMENVKKAVEQIRNILKQGIETPEDQNDLRKMQLRELARLNGTLREDDNR
Kd [3]: 114 ± 23 nM

Binder: B5
Kd (SF1^NTD (residues 1–145) [4]): 85 nM
Kd (SF1^HH (residues 27–145)): > 100000 nM
Kd (SF1^NTD (residues 1–145) [5]): 84 ± 23 nM
